Measurements reported in PMC1847435, “Structural investigations of the ferredoxin and terminal oxygenase components of the biphenyl 2,3-dioxygenase from Sphingobium yanoikuyae B1” (BMC Structural Biology, 2007).

B1: Biphenyl 2,3-dioxygenase from Sphingobium yanoikuyae strain B1, terminal oxygenase β subunit (enzyme)
chain: MSSEQIPVTPDVHYDIEAHYRAEVRMFQTGQYREWLQGMVAEDIHYWMPIYEQRLTRDRRPDPTPDDAAIYNDDFGELKQRVERLYSGQVWMEDPPSKIRYFVSNVEAFEAGNGELDVLSNILVYRNRRQTEVTVHTLGREDKLRRDGNGFKVFRRKLILDARVTQDKNLYFFC
notes: β subunit of biphenyl 2,3-dioxygenase (BPDO-OB1), Sphingobium yanoikuyae B1, encoded by bphA2f; residues 5-174 modelled in the structure; Co-expressed with the α subunit (bphA1fA2f in one vector); also called BPDO-OB1 β subunit; source: cloned from B1 into pET101D, expressed as described in Yu et al. [45], purified
B2: Biphenyl 2,3-dioxygenase from Sphingobium yanoikuyae strain B1, terminal oxygenase α subunit (enzyme)
chain: MSSDATLVDTVNASQSRQVFWDEDVYALEIERIFSRAWLMLGHESLVPKPGDFITTYMAEDKVILSHQSDGTFRAFINSCSHRGNQICHADSGNAKAFVCNYHGWVFGQDGSLVDVPLESRCYHNSLDKQKLAAKSVRVETYKGFIFGCHDPEAPSLEDYLGEFRYYLDTIWEGAGGGMELLGPPMKSLLQCNWKVPAENFIGDGYHVGWTHAAALSQIGGELAGLAGNRADIPFDDLGLQFTTRHGHGFGVIDNAAAGLHIKREGWTKFLEDTRGEVRRKFGPERERLYLGHWNCSIFPNCSFLYGTNTFKIWHPRGPHEIEVWTYTIVPRDADPATKSMIQREAIRTFGTAGTLESDDGENMSSATYINRGVITRNGRMNSTMGVGYEGPHPVYPGIVGISFIGETSYRGFYRFWKEMIDAPDWASVKANDDTWDSVFPNRNFWNEKLNAAE
notes: α subunit of biphenyl 2,3-dioxygenase (BPDO-OB1), Sphingobium yanoikuyae B1, encoded by bphA1f; the α subunit consists of 454 residues; residues 6-454 modelled in the structure; Co-expressed with the β subunit (bphA1fA2f in one vector); also called BPDO-OB1 α subunit; source: cloned from B1 into pET101D, expressed as described in Yu et al. [45], purified

How the values were obtained:
[1] = molecular target: B2; assay: crystal structure; purified BPDO-OB1 at 20 mg/ml in 20 mM potassium phosphate pH 6.8; space group P3(1)21, complete α3β3 in the asymmetric unit; native (1.70 Å) and biphenyl-soaked crystals; conditions: both partners purified
[2] = molecular target: the molecule itself; assay: as above

Binder | binding result [1] | stoichiometry N [2]
B1 | binds | 3
B2 |  | 3
